According to patent US20260193377A1 (FULL LIFE TECHNOLOGIES HK, published 2026):

B1: humanized anti-GCC single domain antibody SEQ ID NO. 83 (VHH)
VHH: EVQLVESGGGLVQPGGSLRLSCAASARPFSNYGMGWFRQAPGKEREFVAAISGGGVYTYYADSVKGRFTISRDNSKNTLYLQMNSLRAEDTAVYYCARARTARVVSRRHEYDYWGQGTQVTVSS
notes: 1
B2: humanized anti-GCC single domain antibody SEQ ID NO. 94 (VHH)
VHH: EVQLVESGGGLVQPGGSLRLSCAASGGIFSNYGMGWFRQAPGKEREFVAAISGGGVYTYYADSVKGRFTISRDNSRNTLYLQMNSLRAEDTAVYYCARARTARLTSRRHDYDYWGQGTQVTVSS
notes: 3
B3: humanized anti-GCC single domain antibody SEQ ID NO. 85 (VHH)
VHH: EVQLVESGGGLVQPGGSLRLSCAASARPFSNYGMGWFRQAPGKEREFVAAISGGGVYTYYADSVKGRFTISRDNSRNTLYLQMNSLRAEDTAVYYCARARTARVVSRRHEYDYWGQGTQVTVSS
notes: 1
B4: humanized anti-GCC single domain antibody SEQ ID NO. 88 (VHH)
VHH: EVQLVESGGGLVQPGGSLRLSCAASGGTFVNYGMGWFRQAPGKEREFVAAISGGGVYRYYADSVKGRFTISRDNSKNTLYLQMNSLRAEDTAVYYCARARTPRVVNRRHEYDYWGQGTQVTVSS
notes: 2
B5: humanized anti-GCC single domain antibody SEQ ID NO. 92 (VHH)
VHH: EVQLVESGGGLVQPGGSLRLSCAASGGIFSNYGMGWFRQAPGKEREFVAAISGGGVYTYYADSVKGRFTISRDNSKNTLYLQMNSLRAEDTAVYYCARARTARLTSRRHDYDYWGQGTQVTVSS
notes: 3
B6: anti-GCC single domain antibody SEQ ID NO. 1 (VHH)
VHH: QVQLVESGGGLVQAGGSLRLSCTGSARPFSNYGMGWFRQAPGKEREFVAAISGGGVYTDFADAVKGRFTISRDNAKNTVYLQMNSLKPEDTAVYYCARARTARVVSRRHEYDYWGQGTQVTVSS
notes: Alpaca-derived sdAb
B7: humanized anti-GCC single domain antibody SEQ ID NO. 86 (VHH)
VHH: EVQLVESGGGLVQPGGSLRLSCTGSARPFSNYGMGWFRQAPGNEREFVAAISGGGVYTDFADSVKGRFTISRDNSKNTLYLQMNSLRAEDTAVYYCARARTARVVSRRHEYDYWGQGTQVTVSS
notes: 1
B8: anti-GCC single domain antibody SEQ ID NO. 2 (VHH)
VHH: QVQLVESGGGLVQAGGSLRLSCTASGGTFVNYGMGWFRQAPGKEREFVAAISGGGVYRDFADSVKGRFTISRDNAKNTVYLQMNSLKPEDTALYYCARARTPRVVNRRHEYDYWGQGTQVTVSS
notes: Alpaca-derived sdAb
B9: anti-GCC single domain antibody SEQ ID NO. 3 (VHH)
VHH: QVQFVESGGGLVQAGGSLRLSCTASGGIFSNYGMGWFRQAPGKEREFVAAISGGGVYTDFADSVKGRFTISRDRAKNTVYLQMNSLKPEDTAVYYCARARTARLTSRRHDYDYWGQGTQVTVSS
notes: Alpaca-derived sdAb
B10: anti-GCC single domain antibody SEQ ID NO. 5 (VHH)
VHH: AVQLVESGGGLVQPGGSLRLSCAASGSTISINVMGWYRQAPGKQRDLVAAISSVGSTYYADSVKGRFTISRDNAKNTVYLQMNSLKPEDTAVYYCNAKSLISDYWGQGTQVTVSS
notes: Alpaca-derived sdAb
B11: humanized anti-GCC single domain antibody SEQ ID NO. 101 (VHH)
VHH: AVQLVESGGGLVQPGGSLRLSCAASGSTISINVMGWYRQAPGKQRDLVAAISSVGSTYYADSVAGRFTISRDNSRNTLYLQMNSLRAEDTAVYYCNAKSLISDYWGQGTQVTVSS
notes: 5
B12: humanized anti-GCC single domain antibody SEQ ID NO. 100 (VHH)
VHH: AVQLVESGGGLVQPGGSLRLSCAASGSTISINVMGWYRQAPGKQRDLVAAISSVGSTYYADSVKGRFTISRDNSKNTLYLQMNSLRAEDTAVYYCNAKSLISDYWGQGTQVTVSS
notes: 5
B13: humanized anti-GCC single domain antibody SEQ ID NO. 107 (VHH)
VHH: EVQLVESGGGLVQPGGSLRLSCAASGSRFMTSSMGWYRQTPGKQREWVATATSSDSTLYADSVKGRFTISRDNAKNSLYLQMNSLRAEDTAVYYCFTTPPTFWGHGTQVTVSS
notes: 7
B14: humanized anti-GCC single domain antibody SEQ ID NO. 110 (VHH)
VHH: EVQLVESGGGLVQPGGSLRLSCAASGSRFMTSSMGWYRQTPGNGREWVATATSSDSTLYADSVKGRFTISRDNAKNSLYLQMNSLRAEDTAVYYCFTTPPTFWGHGTQVTVSS
notes: 7
B15: humanized anti-GCC single domain antibody SEQ ID NO. 109 (VHH)
VHH: EVQLVESGGGLVQPGGSLRLSCAASGSRFMTSSMGWYRQTPGNQREWVATATSSDSTLYADSVKGRFTISRDNAKNSLYLQMNSLRAEDTAVYYCFTTPPTFWGHGTQVTVSS
notes: 7
B16: humanized anti-GCC single domain antibody SEQ ID NO. 108 (VHH)
VHH: EVQLVESGGGLVQPGGSLRLSCAASGSRFMTSSMGWYRQTPGKQREWVATATSSDSTLYADSVKGRFTISRDNARNSLYLQMNSLRAEDTAVYYCFTTPPTFWGHGTQVTVSS
notes: 7
B17: humanized anti-GCC single domain antibody SEQ ID NO. 112 (VHH)
VHH: EVQLVESGGGLVQPGGSLRLSCAASGFTFSHYAMSWVRQAPGKALEWVSDISSGGGITYYADSVKGRFTISRDNSKNTLYLQMNSLRAEDTAVYYCAKASAIGYLAYWMRNPVEYDTRGQGTLVTVSS
notes: 8
B18: humanized anti-GCC single domain antibody SEQ ID NO. 113 (VHH)
VHH: EVQLVESGGGLVQPGGSLRLSCGASGFTFSHYAMSWVRQAPGKALEWVSDISSGGGITKYADSVKGRFTISRDNSKNTLYLQMNSLRAEDTAVYYCAKASAIGYLAYWMRNPVEYDTRGQGTLVTVSS
notes: 8
B19: humanized anti-GCC single domain antibody SEQ ID NO. 114 (VHH)
VHH: QVQLVESGGGLVQPGGSLRLSCAASGFTFSHYAMSWVRQAPGKALEWVSDISSGGGITYYADSVAGRFTISRDNSRNTLYLQMNSLRAEDTAVYYCAKASAIGYLAYWMRNPVEYDTRGQGTLVTVSS
notes: 8
B20: anti-GCC single domain antibody SEQ ID NO. 4 (VHH)
VHH: QSQLVESGGGLVQPGGSLRLSCAASGSTLDHYATAWFRRAPGKEREGISYISSGGGSTYYVDSVKGRFTISRDNAKRTVYLQMNSLKPEDTAVYFCASKRRFNTGWSEPSDYNVWGQGTQVTVTS
notes: Alpaca-derived sdAb
B21: humanized anti-GCC single domain antibody SEQ ID NO. 97 (VHH)
VHH: QSQLVESGGGLVQPGGSLRLSCAASGSTLDHYATAWFRRAPGKEREGISYISSGGGSTYYVDSVKGRFTISRDNSKNTLYLQMNSLRAEDTAVYFCASKRRFNTGWSEPSDYNVWGQGTQVTVTS
notes: 4
B22: humanized anti-GCC single domain antibody SEQ ID NO. 96 (VHH)
VHH: QSQLVESGGGLVQPGGSLRLSCAASGSTLDHYATAWFRRAPGKEREGISYISSGGGSTYYADSVKGRFTISRDNSKNTLYLQMNSLRAEDTAVYYCASKRRFNTGWSEPSDYNVWGQGTQVTVTS
notes: 4
B23: anti-GCC single domain antibody SEQ ID NO. 10 (VHH)
VHH: AVQLVESGGGMVQPGGSLRLSCAASGFTFGAYDMTWVRQAPGKGAEWVSAINSGGDRTYYTDSVKGRFTISRDNAKNTLYLQMNSLKPADTAKYYCGTKIPQFLRGQGTQVTVSS
notes: Alpaca-derived sdAb
B24: humanized anti-GCC single domain antibody SEQ ID NO. 116 (VHH)
VHH: QVQLVESGGGLVKPGGSLRLSCAASGETLSNYNIGWFRQAPGKEREGVSCISQIGFTNYADSVKGRFTISRDNAKNSLYLQMNSLRAEDTAVYYCAVTGGRWASCSFLPLRQDFESWGQGTLVTVSS
notes: 9
B25: anti-GCC single domain antibody SEQ ID NO. 6 (VHH)
VHH: QVQVVESGGGLVQAGGSLRLSCAASGRAFSSYAMGWFRQAPGKQRELVAVITSGGSTNYADSVKGRFTISRDNAKNTVYLQMNSLKPEDTAVYYCAAGTGYGGGFLIGYDYWGQGTQVTVSS
notes: Alpaca-derived sdAb

Experiments:
[1] = target: T1, Human GUCY2C (captured on anti-human Fc capturing antibody, SPR) (human); test: SPR (Biacore T200), human GUCY2C captured via anti-human Fc, humanized sdAb as analyte, 1:1 fit
T1 construct: also called human GCC; guanylyl cyclase C
Method: (§1) Exemplary humanized anti-GCC sdAbs of the present application were diluted with 1×HBS-EP buffer. Human GUCY2C was captured on anti-human Fc capturing Ab-immobilized sCM5 chip. Then the humanized anti-GCC sdAb samples were injected with a flow rate of 10 μl/min for 180 sec, followed by dissociation for 800 sec. The binding curves were locally fitted with Biacore® T200 analysis software (BIAevaluation) using a 1:1 Langmuir binding model.

[2] = target: T2, GCC expressed on T84 cells (UniProt P25092 24-1073, limits assumed); test: flow cytometry on T84 cells expressing GCC, 300 nm [sic], PE-anti human Fc secondary; Blank 30.7
T2 construct: whole, on cells; also called guanylyl cyclase C; GUCY2C
Method: T84 cells expressing GCC were used to evaluate the binding affinity of the anti-GCC sdAbs. Briefly, 50 μL T84 cells at density of 3×10⁶ cells/mL were incubated with 50 μL anti-GCC sdAbs at 4° C. for 2 hours. After incubation, the cells were washed three times with 400 μL FACS buffer, resuspended with PE-anti human Fc 2nd antibody (eBioscience 12-4998-82, 1:1000 dilution) and incubated at 4° C. for 60 min. Then the cells were collected and subject to FACS analysis.

[3] = target: T1, Human GUCY2C (captured on anti-human Fc …); test: SPR (Biacore T200), human GUCY2C captured via anti-human Fc, sdAb as analyte, 1:1 fit
Method: as §1, with “Anti-GCC” for “Exemplary humanized anti-GCC”, “sdAbs” for “sdAbs of the present application”, “Then” for “Then the humanized”

T2 sequence (P25092 24-1073 limits assumed): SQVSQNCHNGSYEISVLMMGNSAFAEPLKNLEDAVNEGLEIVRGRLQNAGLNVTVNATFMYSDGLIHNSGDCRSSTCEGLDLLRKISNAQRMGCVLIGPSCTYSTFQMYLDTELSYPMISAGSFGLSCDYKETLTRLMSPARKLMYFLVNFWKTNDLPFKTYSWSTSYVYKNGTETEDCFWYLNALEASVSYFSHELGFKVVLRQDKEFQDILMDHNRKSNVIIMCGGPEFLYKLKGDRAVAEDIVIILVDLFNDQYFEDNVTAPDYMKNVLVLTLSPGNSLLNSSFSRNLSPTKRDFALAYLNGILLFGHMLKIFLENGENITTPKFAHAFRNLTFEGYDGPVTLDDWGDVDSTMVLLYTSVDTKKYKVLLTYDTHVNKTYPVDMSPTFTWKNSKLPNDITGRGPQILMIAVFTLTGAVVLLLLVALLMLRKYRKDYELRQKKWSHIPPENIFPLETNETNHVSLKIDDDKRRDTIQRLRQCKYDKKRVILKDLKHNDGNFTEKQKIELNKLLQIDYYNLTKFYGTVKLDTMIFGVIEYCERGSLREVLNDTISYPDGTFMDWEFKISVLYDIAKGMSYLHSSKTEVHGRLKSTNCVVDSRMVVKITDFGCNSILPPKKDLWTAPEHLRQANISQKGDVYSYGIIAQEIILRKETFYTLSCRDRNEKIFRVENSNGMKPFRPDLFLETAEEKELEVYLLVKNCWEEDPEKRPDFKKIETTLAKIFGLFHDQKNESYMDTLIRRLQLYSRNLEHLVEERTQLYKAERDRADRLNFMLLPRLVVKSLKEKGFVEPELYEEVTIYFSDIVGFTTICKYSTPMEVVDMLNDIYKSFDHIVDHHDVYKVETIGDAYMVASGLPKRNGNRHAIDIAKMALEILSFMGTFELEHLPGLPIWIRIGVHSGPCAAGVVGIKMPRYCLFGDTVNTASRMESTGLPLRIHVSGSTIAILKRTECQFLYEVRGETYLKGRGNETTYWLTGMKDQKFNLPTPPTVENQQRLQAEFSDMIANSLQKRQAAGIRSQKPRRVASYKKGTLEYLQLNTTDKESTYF
T1 sequence (P25092 24-430): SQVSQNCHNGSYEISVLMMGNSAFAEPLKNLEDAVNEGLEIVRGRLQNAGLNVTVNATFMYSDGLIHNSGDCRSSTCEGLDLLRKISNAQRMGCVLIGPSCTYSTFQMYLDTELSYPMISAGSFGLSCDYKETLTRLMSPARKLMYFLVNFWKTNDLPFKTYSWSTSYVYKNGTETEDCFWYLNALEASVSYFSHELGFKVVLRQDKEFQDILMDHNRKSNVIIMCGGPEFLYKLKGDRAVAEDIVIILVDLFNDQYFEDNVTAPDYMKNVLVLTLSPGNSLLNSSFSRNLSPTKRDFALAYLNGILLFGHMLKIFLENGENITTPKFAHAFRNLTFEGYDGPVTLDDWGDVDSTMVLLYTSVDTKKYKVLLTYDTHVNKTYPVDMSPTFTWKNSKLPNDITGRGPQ

Binder | Kd [1] | koff [1] | kon [1] | Geometric mean MFI [2] | Kd [3] | koff [3] | kon [3]
B1 | 0.115 nM | 0.000177 s⁻¹ | 1.53e+06 M⁻¹ s⁻¹ |  |  |  | 
B2 | 0.425 nM | 0.000633 s⁻¹ | 1.49e+06 M⁻¹ s⁻¹ |  |  |  | 
B3 | 0.187 nM | 0.000309 s⁻¹ | 1.66e+06 M⁻¹ s⁻¹ |  |  |  | 
B4 | 0.155 nM | 0.000337 s⁻¹ | 2.17e+06 M⁻¹ s⁻¹ |  |  |  | 
B5 | 0.759 nM | 0.000788 s⁻¹ | 1.04e+06 M⁻¹ s⁻¹ |  |  |  | 
B6 |  |  |  | 790 | 0.56 nM | 0.0002 s⁻¹ | 357000 M⁻¹ s⁻¹
B7 | 0.235 nM | 0.000181 s⁻¹ | 768000 M⁻¹ s⁻¹ |  |  |  | 
B8 |  |  |  | 721 | 0.0759 nM | 4.67e-05 s⁻¹ | 615000 M⁻¹ s⁻¹
B9 |  |  |  | 910 | 0.218 nM | 0.00018 s⁻¹ | 827000 M⁻¹ s⁻¹
B10 |  |  |  | 371 | 0.431 nM | 0.000142 s⁻¹ | 330000 M⁻¹ s⁻¹
B11 | 0.574 nM | 0.000218 s⁻¹ | 380000 M⁻¹ s⁻¹ |  |  |  | 
B12 | 0.324 nM | 0.000191 s⁻¹ | 591000 M⁻¹ s⁻¹ |  |  |  | 
B13 | 2.03 nM | 0.000531 s⁻¹ | 261000 M⁻¹ s⁻¹ |  |  |  | 
B14 | 54.6 nM | 0.01 s⁻¹ | 183000 M⁻¹ s⁻¹ |  |  |  | 
B15 | 11.8 nM | 0.00213 s⁻¹ | 181000 M⁻¹ s⁻¹ |  |  |  | 
B16 | 2.37 nM | 0.000546 s⁻¹ | 231000 M⁻¹ s⁻¹ |  |  |  | 
B17 | 118 nM | 0.00462 s⁻¹ | 39100 M⁻¹ s⁻¹ |  |  |  | 
B18 | 1.29 nM | 0.00277 s⁻¹ | 2.15e+06 M⁻¹ s⁻¹ |  |  |  | 
B19 | 195 nM | 0.0044 s⁻¹ | 22600 M⁻¹ s⁻¹ |  |  |  | 
B20 |  |  |  |  | 0.414 nM | 0.000149 s⁻¹ | 359000 M⁻¹ s⁻¹
B21 | 3.68 nM | 0.000226 s⁻¹ | 61300 M⁻¹ s⁻¹ |  |  |  | 
B22 | 1.74 nM | 0.000143 s⁻¹ | 82600 M⁻¹ s⁻¹ |  |  |  | 
B23 |  |  |  |  | 0.427 nM | 0.000702 s⁻¹ | 1.64e+06 M⁻¹ s⁻¹
B24 | 15.4 nM | 0.0636 s⁻¹ | 4.14e+06 M⁻¹ s⁻¹ |  |  |  | 
B25 |  |  |  | 298 | 0.753 nM | 0.000172 s⁻¹ | 228000 M⁻¹ s⁻¹
